Assay: Standard 12α-HSDH activity determination (NADP+-dependent oxidation of cholic acid, absorption at 340 nm)
Type: biochemical
Design: unit not given here
Details: cell lysate
Description: The activity is defined as follows: 1 U of the enzyme corresponds to the amount of enzyme which catalyzes the reaction of 1 μmol/min of a 5 mM cholic acid solution in potassium phosphate buffer (50 mM, pH 8.0) at room temperature (i.e. about 20° C.-23° C.).
For the activity determination, 790 μl of potassium phosphate buffer (50 mM, pH 8.0), […] of cholic acid (50 mM in potassium phosphate buffer (50 mM, pH 8.0)) and 10 μl of enzyme solution to be measured were mixed in a cuvette. 100 μl of NADP^+ (2.5 mM) was added at the start of the reaction and the increase in the absorption at 340 nm was determined photometrically. The gradient over 30 s was determined at RT. Determination of the activity took place according to the Lambert-Beer's law.

[1] = E. coli BL21 (DE3), expression period 4 h
[2] = E. coli BL21 (DE3), expression period 22 h
[3] = E. coli Rosetta (DE3), expression period 4 h
[4] = E. coli Rosetta (DE3), expression period 22 h

Molecule	Activity [of culture medium] [1]	Activity [of culture medium] [2]	Activity [of culture medium] [3]	Activity [of culture medium] [4]
HSDH_short: N-terminally truncated short version of 12α-HSDH from Clostridium sp. group P strain 48-50, SEQ ID NO: 4 (protein) IFDGKVAIITGGGKAKSIGYGIAVAYAKEGANLVLTGRNEQKLLDAKEELERLYGIKVLPLAVDVTPSDESEDRVKEAVQKVIAEFGRIDVLINNAQASASGIPLSMQTKDHFDLGIYSGLYATFYYMRECYPYLKETQGSVINFASGAGLFGNVGQCSYAAAKEGIRGLSRVAATEWGKDNINVNVVCPLAMTAQLENFKLSYPEAYEKNLRGVPMGRFGDPELDIGRVCVQLGSPDFKYMSGETLTLEGGMGQRP	12800	33000	3400	24300
HSDH_long: long version of 12α-HSDH from Clostridium sp. group P strain 48-50, SEQ ID NO: 2, recombinantly expressed in E. coli (protein, listed as Clostridium sp.) MDFIDFKEMGRMGIFDGKVAIITGGGKAKSIGYGIAVAYAKEGANLVLTGRNEQKLLDAKEELERLYGIKVLPLAVDVTPSDESEDRVKEAVQKVIAEFGRIDVLINNAQASASGIPLSMQTKDHFDLGIYSGLYATFYYMRECYPYLKETQGSVINFASGAGLFGNVGQCSYAAAKEGIRGLSRVAATEWGKDNINVNVVCPLAMTAQLENFKLSYPEAYEKNLRGVPMGRFGDPELDIGRVCVQLGSPDFKYMSGETLTLEGGMGQRP	12700	36800	3100	19500

— patent US20140147887A1, “NOVEL 12 ALPHA-HYDROXYSTEROID DEHYDROGENASES, PRODUCTION AND USE THEREOF” (PharmaZell GmbH, priority 2006, published 2014)
